Test results reported in patent US10293026B2, “Agent for preventing or treating demyelinating disease” (Osaka University, priority 2014, dated 2019).

Assays:
[1] = tested on: oligodendrocyte precursor cells; assay: BrdU uptake by oligodendrocyte precursor cells with recombinant FGFs (Example 3); assay type: cell-based, C57BL/6j mice; details: FGF at 10, 30 or 100 ng/ml, vs saline control; FIG. 3
Protocol: Recombinant FGF15 (Abcam), FGF21 (R&D), or FGF23 (R&D) was diluted in saline solution immediately before use to prepare an each FGF-containing solution. Oligodendrocyte precursor cells were harvested from C57BL/6j mice (postnatal day 1-old) brains, as in Example 1.
Initially, the oligodendrocyte precursor cells were seeded in a poly-L-lysinde (Sigma)-coated plastic tissue culture dish, and cultured in the following medium for 1 day (37° C., 5% CO2). The medium used was DMEM containing 4 mM L-gludamine (Sigma), 1 mM sodium pyruvate (Sigma), 0.1% bovine serum albumin (Sigma), 50 μg/ml apo-Transferrin (Sigma), 5 μg/ml insulin (Sigma), 30 nM sodium selenite (Sigma), 10 nM biotin (Sigma), 10 nM hydrocortisone (Sigma), 10 ng/ml Platelet-Derived Growth Factor-AA (Peprotech), and 10 ng/ml basic fibroblast growth factor (Peprotech). Thereafter, each type of FGF-containing solution was added to the culture medium of oligodendrocyte precursor cells such that the concentration of each type of FGF was 10 ng/ml, 30 ng/ml, or 100 ng/ml, and the cells were cultured at 37° C. for 24 hours. BrdU was subsequently added and cultured at 37° C. for 24 hours, and then the cells were collected; the BrdU uptake was then detected using the cell proliferation ELISA, BrdU colorimetric kit (Roche). As a control, an equivalent amount of saline solution was used instead of the FGF21-containing solution, and the BrdU uptake was measured under the same conditions as those described above. This experiment studied three cases for each group.

[2] = tested on: oligodendrocyte precursor cells in brain contusion model mice; assay: PDGFRα and Ki67 double-positive cells in brain tissue of brain contusion model mice (Example 9); assay type: in vivo, C57BL/6j mice; details: continuous intraventricular administration 50 ng/kg body weight per day for 1 week, vs vehicle, FIG. 9
Protocol: Anesthetized C57BL/6j mice (female, 7-week-old) were fixed onto a brain stereotaxic apparatus (Narishige). A midline incision was made in the scalp, the fascia was removed, and the skull was exposed. A craniotomy was performed through a 4-mm diameter circle centered at 2 mm lateral to the bregma. A 3-mm diameter chip was connected to the Pneumatic Impact Device (AmScien Instruments) to create a brain contusion. The parameters for imparting impact were as follows: speed: […], depth: 1 mm, and duration: 120 msec.
Osmotic pumps (ALZET) were filled with an FGF21-containing solution prepared by diluting recombinant FGF21 (R&D) in saline solution. A cannula was attached to the tip of each osmotic pump, and the cannula tip was further connected to a Brain infusion kit (ALZET) to continuously administer the FGF21-containing solution into the ventricles. The FGF21-containing solution was administered for 1 week at a dose of 50 ng/kg body weight of FGF21 per day. […] The sections were immunostained using an anti-PDGFRα antibody and an anti-Ki67 antibody, and the number of PDGFRα and Ki67 double-positive cells in the sections was counted. As a control, a saline solution containing 0.5% BSA (Vehicle) was used, and the number of PDGFRα and Ki67 double-positive cells was counted under the same conditions as those described above. […]

B1: FGF21: Recombinant fibroblast growth factor 21 (R&D); the claimed active ingredient promoting oligodendrocyte precursor cell proliferation (protein, listed as Homo sapiens)
chain: MDSDETGFEHSGLWVSVLAGLLLGACQAHPIPDSSPLLQFGGQVRQRYLYTDDAQQTEAHLEIREDGTVGGAADQSPESLLQLKALKPGVIQILGVKTSRFLCQRPDGALYGSLHFDPEACSFRELLLEDGYNVYQSEAHGLPLHLPGNKSPHRDPAPRGPARFLPLPGLPPALPEPPGILAPQPPDVGSSDPLSMVGPSQGRSPSYAS
[1]
  BrdU uptake by the oligodendrocyte precursor cells: markedly increased
[2]
  number of PDGFRα and Ki67 double-positive cells: increased
